Where two headings read alike, the source gives them in different places.

For assay [1], the target named is recombinant human VEGF-C (human) (UniProt P49767).
Assay [2] addresses recombinant human VEGF-D (human) (UniProt O43915).
Assay [3] concerns the target recombinant human VEGF-C (human) (UniProt P49767). The source holds these as a separate data set.
The target is the same in assay [4]. The source holds these as a separate data set.
In assay [5] the target is T1, human VEGF-B 167/189 (human) (UniProt P49765).
T1 sequence (looked up): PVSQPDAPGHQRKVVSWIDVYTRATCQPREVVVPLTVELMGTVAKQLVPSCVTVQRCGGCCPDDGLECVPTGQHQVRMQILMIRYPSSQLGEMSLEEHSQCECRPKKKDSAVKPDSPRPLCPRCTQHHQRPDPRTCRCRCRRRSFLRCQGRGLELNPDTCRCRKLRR
The assay can be described thus: SPR Biacore; Fc fusion captured on anti-human IgG (Fc) antibody chip, VEGF-B167/189 as analyte, 1:1 model.

Assay [6] deals with T2, human PlGF (human) (UniProt P49763).
T2 sequence (looked up): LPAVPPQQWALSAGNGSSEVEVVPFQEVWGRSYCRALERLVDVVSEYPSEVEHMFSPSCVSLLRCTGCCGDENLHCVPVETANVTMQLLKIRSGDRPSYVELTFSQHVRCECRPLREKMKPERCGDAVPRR
The assay can be described thus: SPR Biacore; Fc fusion captured on anti-human IgG (Fc) antibody chip, PlGF as analyte, 1:1 model. In general terms: SPR reads the build-up and loss of mass on a sensor chip optically.

Assay [7] concerns the target recombinant human VEGF-A165 (human) (UniProt P15692).
Assay [8] concerns the target T2, human PlGF (human). The assay can be described thus: SPR Biacore; Fc fusion captured on anti-human IgG (Fc) antibody chip, PlGF as analyte, 1:1 model. This is another data set of the same source.
Assay [9] addresses recombinant human VEGF-A165 (human) (UniProt P15692). The source holds these as a separate data set.
Assay [10] has the same target. The source holds these as a separate data set.
The target is the same in assay [11]. Nature of the assay: SPR Biacore; Fc fusion captured on anti-human IgG (Fc) antibody chip, VEGF-A165 as analyte, 1:1 model.

recombinant human VEGF-C (human), sequence (P49767 103-227 limits assumed): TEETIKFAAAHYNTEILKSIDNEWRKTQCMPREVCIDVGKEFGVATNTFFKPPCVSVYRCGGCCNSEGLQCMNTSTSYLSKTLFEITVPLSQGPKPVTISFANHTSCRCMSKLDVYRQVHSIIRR
recombinant human VEGF-A165 (human), sequence (P15692 other isoform, or with tags, fused parts or gaps limits assumed): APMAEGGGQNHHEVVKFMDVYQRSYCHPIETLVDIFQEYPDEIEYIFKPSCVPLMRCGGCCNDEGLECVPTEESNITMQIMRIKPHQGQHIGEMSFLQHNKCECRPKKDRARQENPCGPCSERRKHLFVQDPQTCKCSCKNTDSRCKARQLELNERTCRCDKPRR
aflibercept (Fc fusion), sequence (chain): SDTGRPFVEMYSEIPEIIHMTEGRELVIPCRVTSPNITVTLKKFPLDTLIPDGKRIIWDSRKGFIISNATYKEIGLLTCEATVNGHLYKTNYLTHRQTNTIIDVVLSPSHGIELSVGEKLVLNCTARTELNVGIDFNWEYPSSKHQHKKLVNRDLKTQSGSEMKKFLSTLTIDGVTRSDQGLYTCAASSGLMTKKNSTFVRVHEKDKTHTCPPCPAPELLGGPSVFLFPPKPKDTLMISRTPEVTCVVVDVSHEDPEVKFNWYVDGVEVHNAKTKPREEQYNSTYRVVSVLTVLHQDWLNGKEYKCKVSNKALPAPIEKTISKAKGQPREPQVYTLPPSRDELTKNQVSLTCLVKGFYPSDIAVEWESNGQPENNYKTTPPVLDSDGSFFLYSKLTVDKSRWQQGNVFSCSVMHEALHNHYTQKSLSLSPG
recombinant human VEGF-D (human), sequence (O43915 93-201 limits assumed): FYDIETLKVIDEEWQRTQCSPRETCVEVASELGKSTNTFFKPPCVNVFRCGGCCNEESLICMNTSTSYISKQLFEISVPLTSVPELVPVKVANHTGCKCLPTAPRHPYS

For the substance “recombinant human VEGFR-3 containing 7 extracellular domains (from UniProt P35916 25-775) (receptor)”, the IC50, MIXED STIMULUS VEGF-C (25 ng/mL) + VEGF-D (150 ng/mL): inhibition of HLEC proliferation, alamarBlue reduction; one IC50 for the mixture in assay [1] and in assay [2] was 1.26 nM in each case. For the same substance, the IC50, inhibition of VEGF-C (25 ng/mL) mediated VEGFR-2 signaling, VEGFR-2-NFAT-RE luciferase reporter cells in assay [3] was 0.0093 nM. Further, in assay [4], the IC50, inhibition of VEGF-C (40 ng/mL on the sheet) mediated HLEC proliferation, alamarBlue reduction came out at 1.47 nM.
Consider aflibercept (Fc fusion), for which the Kd in assay [5] came to 0.0173 nM; in assay [6], 0.484 nM; in assay [8], 0.48 nM; in assay [11], 0.0336 nM. Also, the IC50, inhibition of VEGF-A165 (100 ng/mL on the sheet) mediated HLEC proliferation, alamarBlue reduction in [7] was determined as 1.18 nM. Further, the IC50, inhibition of VEGF-A165 (60 ng/mL) mediated VEGFR-2 signaling, VEGFR-2-NFAT-RE luciferase reporter cells in assay [9] amounted to 0.41 nM; in assay [10] it was 0.39 nM.

Usually Kd stands for the constant that tells how readily two partners part at equilibrium.

Values taken from patent US20230399377A1.
